According to patent US20190077860A1 (EISAI R AND D MANAGEMENT, published 2019):

Tests used:
[1] = biological target: T1, mouse EphA4 extracellular region-SEAP-His protein (mouse); experiment: competition ELISA, competitor mouse Ephrin A1-Fc
Method: (§1) Antibody A obtained in Example 1 was evaluated for its inhibitory activity against the binding between mouse EphA4 and its mouse ligand according to the following steps. Each well of a 96-well plate (Nunc) was coated with an anti-alkaline phosphatase antibody (Thermo Fisher Scientific). After incubation overnight at 4° C., each well was blocked with 1% BlockAce (DS Pharma Biomedical) at room temperature for 1 hour. After washing with 0.05% Tween 20/PBS (Thermo Fisher Scientific) three times, the mouse EphA4 extracellular region-SEAP-His protein obtained by the method of Example 1 was added (final concentration: 10 nM) to each well and incubated at room temperature for 1 hour. After washing three times, ligands and serially diluted antibody A (0, 0.001, 0.003, 0.01, 0.03, 0.1, 0.3, 1,3, 10, 30, 100, 300, and 1000 nM) or a known EphA4 inhibitor KYL peptide ([…], 0, 0.003, 0.01, 0.03, 0.1, 0.3, 1, 3, 10, 30, and 100 μM, its synthesis was outsourced to Hokkaido System Science) or compound 1 (0, 0.03, 0.1, 0.3, 1,3, 10, 30, 100, 300, and 1000 μM, Formula 1, Matrix Scientific) were added to each well. The ligands used were mouse Ephrin A1-Fc chimera (R&D Systems, final concentration: 20 nM) and mouse Ephrin B2-Fc chimera (R&D Systems, final concentration: 0.6 nM). […] The absorbance at 450 nm was read using a microplate reader (Molecular Devices).

[2] = biological target: T1, mouse EphA4 extracellular …; experiment: competition ELISA, mouse ligands
Method: as §1

[3] = biological target: T1, mouse EphA4 extracellular …; experiment: SPR (Biacore T200), mouse EphA4 extracellular region-SEAP-His captured on an anti-His antibody CM5 chip, antibody as analyte at 0.6-50 nM, 1:1 fit
Method: (§2) Next, the binding affinity of antibody A-Fab and antibody A-F(ab′)₂ for mouse and human EphA4 was determined by surface plasmon resonance (SPR) using Biacore T200 (GE Healthcare). Antibody A obtained in Example 1 was used as a control for the comparison of each fragment. First, an anti-His tag antibody was immobilized on sensor chip CM5. The immobilization of the anti-His tag antibody on sensor chip CM5 was performed by the amine coupling method using N-hydroxysuccinimide (NHS) and N-ethyl-N′-(3-dimethylaminopropyl)carbodiimide hydrochloride (EDC). Ethanolamine was used in blocking (the sensor chip and the reagents for immobilization were all manufactured by GE Healthcare). The antibody was diluted with a buffer solution for immobilization (10 mM sodium acetate, pH 4.5) into 3 μg/mL and immobilized on the sensor chip according to the protocol attached to Biacore T200.
(§3) Mouse or human EphA4 extracellular region-SEAP-His protein was diluted with a running buffer solution HBS-EP (GE Healthcare, BR-1001-88), injected onto a flow cell for 120 seconds, and captured (amount of the protein captured: approximately 10 to 20 RU). Subsequently, antibody A (50, 16.7, 5.6, 1.9, 0.6, and 0 nM), antibody A-Fab (500, 166.7, 55.6, 18.5, 6.2, and 0 nM), or antibody A-F(ab′)₂ (50, 16.7, 5.6, 1.9, 0.6, and 0 nM) serially diluted using HBS-EP was added to the sensor chip for 120 seconds. Binding reaction curves were sequentially observed at the time of the addition (association phase, for 120 sec) and after the completion of the addition (dissociation phase, for 900 sec). After the completion of each observation, the sensor chip was regenerated by the addition of 3 M MgCl₂ (Wako Pure Chemical Industries) (for 30 sec). The obtained binding reaction curves were subjected to fitting analysis with 1:1 binding models using software BIA evaluation attached to the system to calculate the binding affinity (KD=kd/ka) for mouse and human EphA4.

[4] = biological target: T2, human EphA4 extracellular region-SEAP-His protein (human, UniProt P54764 20-547); experiment: SPR (Biacore A100), antibody captured, EphA4-SEAP-His analyte
T2 construct: also called hEphA4-SEAP-His
Method: (§4) The binding affinity of antibody A obtained in Example 1 for mouse and human EphA4 was determined by surface plasmon resonance (SPR) using Biacore A100 (GE Healthcare). First, a rat anti-mouse IgG₁ antibody produced with a conventional procedure by immunizing rat with a mouse IgG₁ antibody was immobilized on sensor chip CM5. The immobilization of the rat anti-mouse IgG1 antibody on sensor chip CM5 was performed by the amine coupling method using N-hydroxysuccinimide (NHS) and N-ethyl-N′-(3-dimethylaminopropyl)carbodiimide hydrochloride (EDC). Ethanolamine was used in blocking (the sensor chip and the reagents for immobilization were all manufactured by GE Healthcare). The antibody was diluted with a buffer solution for immobilization (10 mM sodium acetate, pH 4.5) into 1 to 2 μg/mL and immobilized on the sensor chip according to the protocol attached to Biacore A100. Antibody A was diluted with a running buffer solution HBS-EP (GE Healthcare, BR-1001-88), injected onto a flow cell for 120 seconds, and captured (amount of the antibody captured: approximately 70 to 100 RU). Subsequently, mouse or human EphA4 extracellular region-SEAP-His serially diluted in the range of 50, 25, 12.5, 6.3, 3.1, 1.6, 0.8, and 0 nM using HBS-EP was added to the sensor chip for 120 seconds. […]

[5] = biological target: T1, mouse EphA4 extracellular …; experiment: as above
Method: as §4

[6] = biological target: T2, human EphA4 extracellular …; experiment: SPR (Biacore T200), human EphA4 extracellular region-SEAP-His captured on an anti-His antibody CM5 chip, antibody as analyte at 0.6-50 nM, 1:1 fit
Method: as §2, §3

T2 sequence (P54764 20-547): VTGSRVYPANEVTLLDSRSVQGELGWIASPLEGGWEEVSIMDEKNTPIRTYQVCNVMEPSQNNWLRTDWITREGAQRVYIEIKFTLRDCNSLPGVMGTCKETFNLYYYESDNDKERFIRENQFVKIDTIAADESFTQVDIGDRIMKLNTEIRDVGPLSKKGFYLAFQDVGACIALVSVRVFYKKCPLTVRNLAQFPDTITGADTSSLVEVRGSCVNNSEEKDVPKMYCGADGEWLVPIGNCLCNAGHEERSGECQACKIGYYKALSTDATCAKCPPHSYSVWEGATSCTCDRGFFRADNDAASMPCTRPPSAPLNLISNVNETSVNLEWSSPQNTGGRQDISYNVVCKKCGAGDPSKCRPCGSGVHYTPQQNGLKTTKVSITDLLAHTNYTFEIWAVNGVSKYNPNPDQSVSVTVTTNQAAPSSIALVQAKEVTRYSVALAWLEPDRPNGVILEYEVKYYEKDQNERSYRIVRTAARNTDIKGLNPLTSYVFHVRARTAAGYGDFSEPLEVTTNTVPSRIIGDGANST
T1 sequence (chain, as listed by the source limits assumed): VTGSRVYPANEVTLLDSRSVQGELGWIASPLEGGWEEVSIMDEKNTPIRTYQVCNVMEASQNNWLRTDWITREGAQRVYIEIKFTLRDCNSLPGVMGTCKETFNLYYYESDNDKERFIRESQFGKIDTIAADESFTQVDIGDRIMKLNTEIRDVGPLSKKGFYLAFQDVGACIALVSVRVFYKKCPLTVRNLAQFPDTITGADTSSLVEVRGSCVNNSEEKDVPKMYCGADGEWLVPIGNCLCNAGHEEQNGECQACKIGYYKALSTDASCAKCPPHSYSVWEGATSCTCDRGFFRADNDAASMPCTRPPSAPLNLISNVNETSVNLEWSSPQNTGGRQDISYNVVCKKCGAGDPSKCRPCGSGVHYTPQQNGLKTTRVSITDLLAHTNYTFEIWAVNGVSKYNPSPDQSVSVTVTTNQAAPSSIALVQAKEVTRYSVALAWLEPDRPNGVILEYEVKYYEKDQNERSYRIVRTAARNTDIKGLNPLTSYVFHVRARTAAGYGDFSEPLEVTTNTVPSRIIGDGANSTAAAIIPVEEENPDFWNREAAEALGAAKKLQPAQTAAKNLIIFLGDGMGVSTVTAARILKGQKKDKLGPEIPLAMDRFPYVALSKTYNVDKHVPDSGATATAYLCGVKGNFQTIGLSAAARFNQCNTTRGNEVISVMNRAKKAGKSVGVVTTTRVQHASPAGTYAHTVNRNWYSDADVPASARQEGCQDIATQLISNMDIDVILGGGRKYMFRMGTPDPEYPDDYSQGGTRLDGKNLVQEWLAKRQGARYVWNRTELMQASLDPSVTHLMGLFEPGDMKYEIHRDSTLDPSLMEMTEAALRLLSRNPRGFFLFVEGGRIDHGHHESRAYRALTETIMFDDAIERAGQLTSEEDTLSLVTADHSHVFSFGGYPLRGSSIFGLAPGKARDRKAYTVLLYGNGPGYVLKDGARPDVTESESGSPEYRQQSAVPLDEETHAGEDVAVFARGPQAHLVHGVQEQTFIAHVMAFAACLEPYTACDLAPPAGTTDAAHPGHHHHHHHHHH

IC50 [1]: ~1200 pM
fold activity against KYL peptide [2]: ≥ 1000 fold
Kd [3]: 147 pM
koff [3]: 0.000423 s⁻¹
kon [3]: 2.88e+06 M⁻¹ s⁻¹
Kd [4]: 661 pM
Kd [5]: 729 pM
Kd [6]: 144 pM
koff [6]: 0.000389 s⁻¹
kon [6]: 2.7e+06 M⁻¹ s⁻¹
B1: antibody A (antibody, mouse IgG1, kappa, V domains shown)
VH: QIQLVQSGPELKKPGETVKISCKASGYTFTDYSMHWVKQAPGKGLKWMGWINTETGEPTYADDFKGRFAFSLETSASTAYLQINNLKNEDTATYFCARIPLYYYGSRYWYFDVWGAGTTVTVSS
VL: DIQMTQSPASLSVSVGETVTITCRASENIYRNLAWYQQKQGKSPQLLVYAATNLADGVPSRFSGSGSGTQYSLKINSLQSEDFGSYYCQHFWGTPWTFGGGTKLEIKR
notes: mouse IgG1 heavy chain, kappa light chain; purified from hybridoma supernatant; also called anti-EphA4 monoclonal antibody; antibody A-IgG
